From patent US20190338028A1 (PROMAB BIOTECHNOLOGIES, published 2019) come the findings set out here.

For this experiment, the target named is T1, CD47 on human cancer cells and in human tumor and normal tissue samples (human, UniProt Q08722 19-323).
T1 construct: whole, on cells; also called CD47 antigen; CD47 tumor antigen
As to the kind of experiment: IHC staining of tumor and normal tissue samples.

B1: humanized CD47 ScFv fused in frame with C-terminal human Fc (scFv)
scFv: EVQLVESGGGLVQPGGSLRLSCAASGFTFSGYGMSWVRQAPGKGLEWVATITSGGTYTYYPDSVKGRFTISRDNAKNSLYLQMNSLRAEDTAVYYCARSLAGNAMDYWGQGTLVTVSSGGGGSGGGGSGGGGSEIVLTQSPATLSLSPGERATLSCRASQSISDYLHWYQQKPGQAPRLLIYFASQRATGIPARFSGSGSGTDFTLTISSLEPEDFAVYYCQQGHGFPRTFGGGTKVEIK
notes: also called humanized anti-CD47 scFv; not shown: C-terminal human Fc from pYD11 vector
In the case of B1, the binding result is “binds”.
